The values below come from PMC8727025.

For the assay, the target named is Arf1 Arf1-del17, lacks the first 17 amino acids (UniProt P84077). The experiment in a line: GFP-GBF1 beads incubated with purified Arf1-del17-His. The settings on record: reference: wild type.
Arf1 Arf1-del17, lacks the first 17 amino acids, sequence (P84077 whole entry, looked up): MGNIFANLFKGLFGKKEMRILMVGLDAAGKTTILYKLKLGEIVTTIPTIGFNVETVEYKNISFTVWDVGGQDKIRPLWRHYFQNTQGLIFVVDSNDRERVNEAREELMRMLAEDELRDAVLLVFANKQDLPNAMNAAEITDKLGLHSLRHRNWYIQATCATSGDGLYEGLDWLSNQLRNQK

With GBF1 (from UniProt Q92538-1) Y876F, the other: percent reduction vs wild type (sites Y876) was 40%.
For the setting “sites Y898”, GBF1 (from UniProt Q92538-1) Y898F had an other: percent reduction vs wild type of 60%.
